# Biological target: T1, IL-1beta (UniProt P01584 117-269)
# T1 construct: also called IL-1β
# Assay: Biacore
fold difference in affinity vs parental [fold],binding result,Binder
0.84,,"XPA23 Fab, heavy chain K31W (Fab, V domains shown) VH: EVQLLESGGGLVQPGGSLRLSCAASGFTFSWYFMFWVRQAPGKGLEWVSVISPSGGMTRYADSVKGRFTISRDNSKNTLYLQMNSLRAEDTAVYYCARVGYGGNSDYWGQGTLVTVSS VL: DIQMTQSPSSVSASVGDRLTIICRASQDINRWLAWYQQTPGNAPKLLIHSATSLQSGVPSRFSGSGSGTDFTLTINSLQPEDFATYYCQQADSFPLTFGGGTKVEIK"
,no binding,"XPA23 Fab, heavy chain N104D (Fab, V domains shown) VH: EVQLLESGGGLVQPGGSLRLSCAASGFTFSKYFMFWVRQAPGKGLEWVSVISPSGGMTRYADSVKGRFTISRDNSKNTLYLQMNSLRAEDTAVYYCARVGYGGDSDYWGQGTLVTVSS VL: DIQMTQSPSSVSASVGDRLTIICRASQDINRWLAWYQQTPGNAPKLLIHSATSLQSGVPSRFSGSGSGTDFTLTINSLQPEDFATYYCQQADSFPLTFGGGTKVEIK"
0.04,,"XPA23 Fab, heavy chain M57S (Fab, V domains shown) VH: EVQLLESGGGLVQPGGSLRLSCAASGFTFSKYFMFWVRQAPGKGLEWVSVISPSGGSTRYADSVKGRFTISRDNSKNTLYLQMNSLRAEDTAVYYCARVGYGGNSDYWGQGTLVTVSS VL: DIQMTQSPSSVSASVGDRLTIICRASQDINRWLAWYQQTPGNAPKLLIHSATSLQSGVPSRFSGSGSGTDFTLTINSLQPEDFATYYCQQADSFPLTFGGGTKVEIK"
0.06,,"XPA23 Fab, heavy chain M57R (Fab, V domains shown) VH: EVQLLESGGGLVQPGGSLRLSCAASGFTFSKYFMFWVRQAPGKGLEWVSVISPSGGRTRYADSVKGRFTISRDNSKNTLYLQMNSLRAEDTAVYYCARVGYGGNSDYWGQGTLVTVSS VL: DIQMTQSPSSVSASVGDRLTIICRASQDINRWLAWYQQTPGNAPKLLIHSATSLQSGVPSRFSGSGSGTDFTLTINSLQPEDFATYYCQQADSFPLTFGGGTKVEIK"
,no binding,"XPA23 Fab, heavy chain N104F (Fab, V domains shown) VH: EVQLLESGGGLVQPGGSLRLSCAASGFTFSKYFMFWVRQAPGKGLEWVSVISPSGGMTRYADSVKGRFTISRDNSKNTLYLQMNSLRAEDTAVYYCARVGYGGFSDYWGQGTLVTVSS VL: DIQMTQSPSSVSASVGDRLTIICRASQDINRWLAWYQQTPGNAPKLLIHSATSLQSGVPSRFSGSGSGTDFTLTINSLQPEDFATYYCQQADSFPLTFGGGTKVEIK"
,no binding,"XPA23 Fab, heavy chain M57D (Fab, V domains shown) VH: EVQLLESGGGLVQPGGSLRLSCAASGFTFSKYFMFWVRQAPGKGLEWVSVISPSGGDTRYADSVKGRFTISRDNSKNTLYLQMNSLRAEDTAVYYCARVGYGGNSDYWGQGTLVTVSS VL: DIQMTQSPSSVSASVGDRLTIICRASQDINRWLAWYQQTPGNAPKLLIHSATSLQSGVPSRFSGSGSGTDFTLTINSLQPEDFATYYCQQADSFPLTFGGGTKVEIK"
0.86,,"XPA23 Fab, heavy chain M57Y (Fab, V domains shown) VH: EVQLLESGGGLVQPGGSLRLSCAASGFTFSKYFMFWVRQAPGKGLEWVSVISPSGGYTRYADSVKGRFTISRDNSKNTLYLQMNSLRAEDTAVYYCARVGYGGNSDYWGQGTLVTVSS VL: DIQMTQSPSSVSASVGDRLTIICRASQDINRWLAWYQQTPGNAPKLLIHSATSLQSGVPSRFSGSGSGTDFTLTINSLQPEDFATYYCQQADSFPLTFGGGTKVEIK"
0.04,,"XPA23 Fab, heavy chain K31Y (Fab, V domains shown) VH: EVQLLESGGGLVQPGGSLRLSCAASGFTFSYYFMFWVRQAPGKGLEWVSVISPSGGMTRYADSVKGRFTISRDNSKNTLYLQMNSLRAEDTAVYYCARVGYGGNSDYWGQGTLVTVSS VL: DIQMTQSPSSVSASVGDRLTIICRASQDINRWLAWYQQTPGNAPKLLIHSATSLQSGVPSRFSGSGSGTDFTLTINSLQPEDFATYYCQQADSFPLTFGGGTKVEIK"
0.03,,"XPA23 Fab, heavy chain M57N (Fab, V domains shown) VH: EVQLLESGGGLVQPGGSLRLSCAASGFTFSKYFMFWVRQAPGKGLEWVSVISPSGGNTRYADSVKGRFTISRDNSKNTLYLQMNSLRAEDTAVYYCARVGYGGNSDYWGQGTLVTVSS VL: DIQMTQSPSSVSASVGDRLTIICRASQDINRWLAWYQQTPGNAPKLLIHSATSLQSGVPSRFSGSGSGTDFTLTINSLQPEDFATYYCQQADSFPLTFGGGTKVEIK"
0.04,,"XPA23 Fab, heavy chain M57K (Fab, V domains shown) VH: EVQLLESGGGLVQPGGSLRLSCAASGFTFSKYFMFWVRQAPGKGLEWVSVISPSGGKTRYADSVKGRFTISRDNSKNTLYLQMNSLRAEDTAVYYCARVGYGGNSDYWGQGTLVTVSS VL: DIQMTQSPSSVSASVGDRLTIICRASQDINRWLAWYQQTPGNAPKLLIHSATSLQSGVPSRFSGSGSGTDFTLTINSLQPEDFATYYCQQADSFPLTFGGGTKVEIK"
,no binding,"XPA23 Fab, heavy chain M57E (Fab, V domains shown) VH: EVQLLESGGGLVQPGGSLRLSCAASGFTFSKYFMFWVRQAPGKGLEWVSVISPSGGETRYADSVKGRFTISRDNSKNTLYLQMNSLRAEDTAVYYCARVGYGGNSDYWGQGTLVTVSS VL: DIQMTQSPSSVSASVGDRLTIICRASQDINRWLAWYQQTPGNAPKLLIHSATSLQSGVPSRFSGSGSGTDFTLTINSLQPEDFATYYCQQADSFPLTFGGGTKVEIK"
0.02,,"XPA23 Fab, heavy chain M57Q (Fab, V domains shown) VH: EVQLLESGGGLVQPGGSLRLSCAASGFTFSKYFMFWVRQAPGKGLEWVSVISPSGGQTRYADSVKGRFTISRDNSKNTLYLQMNSLRAEDTAVYYCARVGYGGNSDYWGQGTLVTVSS VL: DIQMTQSPSSVSASVGDRLTIICRASQDINRWLAWYQQTPGNAPKLLIHSATSLQSGVPSRFSGSGSGTDFTLTINSLQPEDFATYYCQQADSFPLTFGGGTKVEIK"
0.08,,"XPA23 Fab, heavy chain M57H (Fab, V domains shown) VH: EVQLLESGGGLVQPGGSLRLSCAASGFTFSKYFMFWVRQAPGKGLEWVSVISPSGGHTRYADSVKGRFTISRDNSKNTLYLQMNSLRAEDTAVYYCARVGYGGNSDYWGQGTLVTVSS VL: DIQMTQSPSSVSASVGDRLTIICRASQDINRWLAWYQQTPGNAPKLLIHSATSLQSGVPSRFSGSGSGTDFTLTINSLQPEDFATYYCQQADSFPLTFGGGTKVEIK"
,no binding,"XPA23 Fab, heavy chain N104E (Fab, V domains shown) VH: EVQLLESGGGLVQPGGSLRLSCAASGFTFSKYFMFWVRQAPGKGLEWVSVISPSGGMTRYADSVKGRFTISRDNSKNTLYLQMNSLRAEDTAVYYCARVGYGGESDYWGQGTLVTVSS VL: DIQMTQSPSSVSASVGDRLTIICRASQDINRWLAWYQQTPGNAPKLLIHSATSLQSGVPSRFSGSGSGTDFTLTINSLQPEDFATYYCQQADSFPLTFGGGTKVEIK"
1.03,,"XPA23 Fab, heavy chain M57F (Fab, V domains shown) VH: EVQLLESGGGLVQPGGSLRLSCAASGFTFSKYFMFWVRQAPGKGLEWVSVISPSGGFTRYADSVKGRFTISRDNSKNTLYLQMNSLRAEDTAVYYCARVGYGGNSDYWGQGTLVTVSS VL: DIQMTQSPSSVSASVGDRLTIICRASQDINRWLAWYQQTPGNAPKLLIHSATSLQSGVPSRFSGSGSGTDFTLTINSLQPEDFATYYCQQADSFPLTFGGGTKVEIK"
